The values below come from PMC3893233.

The Kd is a measure of binding affinity in units of concentration. Lower therefore signals a tighter complex.

Holding throughout (test): SPR
(In general: SPR reads the build-up and loss of mass on a sensor chip optically.)

In assay [1] the target is homo-DLE variant (of Table 2, prepared by control mAb2).
In assay [2] the target is homo-L235V/F243L/R292P/Y300L/P396L (VLPYLL) variant.
Assay [3] deals with hemi-YWA variant.
Assay [4] deals with homo-DLE variant (of Table 1, compared with control mAb1).
For assay [5], the target named is afucosyl mAb.

Consider “human FcγRIa, extracellular region (from UniProt P12314 16-292) (receptor)”, for which the Fold KD = KD (control mAb2)/KD (Fc variant) in assay [1] is 3.4 fold.

Regarding “human FcγRIIb, extracellular region (from UniProt P31994 43-217) (receptor)”, the Fold KD = KD (control mAb2)/KD (Fc variant) in assay [2] stood at 0.54 fold; in assay [1], 6.7 fold.

On to “human FcγRIIIa^F158, extracellular region (from UniProt P08637 17-208) (receptor)”, for which the dissociation constant (Kd) in assay [3] came out at 280 nM; in assay [4] it was 5.5 nM.

Substance “human FcγRIIa^H131, extracellular region (from UniProt P12318 34-217) (receptor)” showed a Fold KD = KD (IgG1)/KD (Fc variant) in assay [5] of 0.85 fold. The same substance had a Fold KD = KD (control mAb2)/KD (Fc variant) in assay [1] of 1.4 fold.

As to “human FcγRIIIa^V158, extracellular region (receptor)”, in assay [5], the Fold KD = KD (IgG1)/KD (Fc variant) is 45 fold. The Fold KD = KD (control mAb2)/KD (Fc variant) turned out to be 33 fold in assay [2] and 126 fold in assay [1].

In assay [5], “human FcγRIIa^R131, extracellular region (receptor)” displayed a Fold KD = KD (IgG1)/KD (Fc variant) of 1.8 fold. This substance also gave a Fold KD = KD (control mAb2)/KD (Fc variant) in assay [1] of 2.9 fold.
